Experimental data from the supplement of paper PMC7125110.
± gives the standard error. For part of these data: Fewer inactive variants are shown than the library holds.

B1: glmS ribozyme (parent)
chain: AUAAAAGCGCCAGAACUACAGAAAUGUAGUUGACGAGGAGGAGGUUUAUCGAAUUUUCGGCGGAUGCCUCCAAA

How the values were obtained:
Conditions in all cases: with glucosamine-6-phosphate
glucosamine-6-phosphate [1] = variants of: B1; assay: kcat; higher = faster cleavage; RNA array
Summary of the method: (§1)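 Tiles of sequenced MiSeq chips were imaged over ~14 h at 37 °C. On them, barcoded ribozyme variants had been transcribed in situ by E. coli RNA polymerase and were tracked via a hybridised Cy3 probe while glucosamine-6-phosphate (40 μM to 10 mM) in HEPES/KCl/Mg(OAc)2 buffer flowed in. Per-tile medians, normalised to baseline and to non-cleaving reference variants, were fit to one- or two-exponential decays for kobs, and weighted Michaelis–Menten fits gave kcat and KM.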

glucosamine-6-phosphate [2] = variants of: B1; assay: KM; higher = weaker cofactor use; RNA array
Summary of the method: as §1

glucosamine-6-phosphate [3] = variants of: B1; assay: self-cleavage kobs at 40 uM GlcN6P; higher = faster cleavage; RNA array
Summary of the method: as §1

glucosamine-6-phosphate [4] = variants of: B1; assay: self-cleavage kobs at 160 uM GlcN6P; higher = faster cleavage; RNA array
Summary of the method: as §1

glucosamine-6-phosphate [5] = variants of: B1; assay: self-cleavage kobs at 2500 uM GlcN6P; higher = faster cleavage; RNA array
Summary of the method: as §1

glucosamine-6-phosphate [6] = variants of: B1; assay: self-cleavage kobs at 10000 uM GlcN6P; higher = faster cleavage; RNA array
Summary of the method: as §1

glucosamine-6-phosphate [7] = variants of: B1; assay: self-cleavage kobs at 640 uM GlcN6P; higher = faster cleavage; RNA array
Summary of the method: as §1

Variant	kcat (glucosamine-6-phosphate [1])	KM (glucosamine-6-phosphate [2])	self-cleavage kobs at 40 uM GlcN6P (glucosamine-6-phosphate [3])	self-cleavage kobs at 160 uM GlcN6P (glucosamine-6-phosphate [4])	self-cleavage kobs at 2500 uM GlcN6P (glucosamine-6-phosphate [5])	self-cleavage kobs at 10000 uM GlcN6P (glucosamine-6-phosphate [6])	self-cleavage kobs at 640 uM GlcN6P (glucosamine-6-phosphate [7])
G32C A53U	0.000101 ± 5.9e-06 s⁻¹	7510 ± 930 µM	< 1e-05 s⁻¹	< 1e-05 s⁻¹	2.59e-05 ± 6.8e-06 s⁻¹	5.79e-05 ± 5e-06 s⁻¹	–
U57A G59A	1.13e-05 ± 3e-06 s⁻¹	–	–	–	–	–	< 1e-05 s⁻¹
G13A G21U G37U C70U	< 1e-05 s⁻¹	–	–	–	< 1e-05 s⁻¹	–	–
U65A C67A	9.68e-05 ± 1.3e-05 s⁻¹	–	5.89e-05 ± 6.3e-06 s⁻¹	9.4e-05 ± 8.1e-06 s⁻¹	–	–	8.78e-05 ± 7.6e-06 s⁻¹
A6G U47G	0.0001 ± 1.3e-05 s⁻¹	1400 ± 520 µM	< 1e-05 s⁻¹	–	6.1e-05 ± 1.2e-05 s⁻¹	9.1e-05 ± 1.8e-05 s⁻¹	3.81e-05 ± 1.5e-05 s⁻¹
A14U C68U	0.00143 ± 0.00047 s⁻¹	–	2.73e-05 ± 7.7e-06 s⁻¹	6.57e-05 ± 1.2e-05 s⁻¹	0.000422 ± 6.8e-05 s⁻¹	0.00123 ± 0.00011 s⁻¹	0.000297 ± 3.8e-05 s⁻¹
U46C U55A	0.00288 ± 0.00026 s⁻¹	1110 ± 150 µM	9.7e-05 ± 1.5e-05 s⁻¹	–	0.00248 ± 0.00076 s⁻¹	0.00247 ± 0.00041 s⁻¹	0.0011 ± 0.0002 s⁻¹
A15C U45C	0.000613 ± 8.6e-05 s⁻¹	5480 ± 1200 µM	–	–	0.000176 ± 3.7e-05 s⁻¹	0.000409 ± 7.5e-05 s⁻¹	6.81e-05 ± 1.6e-05 s⁻¹
A48C C70U	0.000564 ± 5.5e-05 s⁻¹	3470 ± 540 µM	–	–	0.000254 ± 3.9e-05 s⁻¹	0.000401 ± 7.4e-05 s⁻¹	8.59e-05 ± 1.5e-05 s⁻¹
C10G G37U	< 1e-05 s⁻¹	–	–	–	–	–	–
U56A A64C	6.42e-05 ± 1e-05 s⁻¹	–	< 1e-05 s⁻¹	–	6.08e-05 ± 1.1e-05 s⁻¹	5.71e-05 ± 9.1e-06 s⁻¹	–
A6U U56G	0.000121 ± 1.2e-05 s⁻¹	1090 ± 430 µM	–	–	9.43e-05 ± 1.2e-05 s⁻¹	0.000104 ± 1.1e-05 s⁻¹	3.35e-05 ± 1.5e-05 s⁻¹
G41C G66A	0.00127 ± 0.00038 s⁻¹	4000 ± 1900 µM	–	6.76e-05 ± 2.3e-05 s⁻¹	0.000621 ± 0.00011 s⁻¹	0.000851 ± 0.00016 s⁻¹	0.00013 ± 3.9e-05 s⁻¹
G41U C70A	0.0306 ± 0.013 s⁻¹	–	0.00288 ± 0.00022 s⁻¹	0.00721 ± 0.0009 s⁻¹	0.0568 ± 0.016 s⁻¹	–	0.0189 ± 0.0026 s⁻¹
U47C C58U	0.000109 ± 7.3e-06 s⁻¹	–	–	–	–	4.92e-05 ± 8.1e-06 s⁻¹	–
A14G G35C	< 1e-05 s⁻¹	–	< 1e-05 s⁻¹	< 1e-05 s⁻¹	< 1e-05 s⁻¹	–	< 1e-05 s⁻¹
U49G C67U	0.000381 ± 5.6e-05 s⁻¹	2520 ± 770 µM	–	–	0.000257 ± 6.4e-05 s⁻¹	0.000292 ± 4.6e-05 s⁻¹	7.24e-05 ± 1.9e-05 s⁻¹

Variant	kcat (glucosamine-6-phosphate [1])	KM (glucosamine-6-phosphate [2])	self-cleavage kobs at 40 uM GlcN6P (glucosamine-6-phosphate [3])	self-cleavage kobs at 160 uM GlcN6P (glucosamine-6-phosphate [4])	self-cleavage kobs at 2500 uM GlcN6P (glucosamine-6-phosphate [5])	self-cleavage kobs at 10000 uM GlcN6P (glucosamine-6-phosphate [6])	self-cleavage kobs at 640 uM GlcN6P (glucosamine-6-phosphate [7])
U49G C50G	< 1e-05 s⁻¹	–	–	–	–	–	< 1e-05 s⁻¹
A12G U69A	0.000112 ± 2.3e-05 s⁻¹	–	–	–	0.000171 ± 5.2e-05 s⁻¹	9.85e-05 ± 1.9e-05 s⁻¹	4.87e-05 ± 2.1e-05 s⁻¹
G37A G38C C67U C68G C71U	2.2e-05 ± 4e-06 s⁻¹	–	–	–	–	–	–
G37C C71U	3.39e-05 ± 1.3e-06 s⁻¹	662 ± 140 µM	–	–	2.55e-05 ± 9.5e-06 s⁻¹	3.23e-05 ± 8.2e-06 s⁻¹	–
G29C U46G	0.000315 ± 9.7e-05 s⁻¹	–	–	–	0.000285 ± 7.3e-05 s⁻¹	0.000234 ± 7.5e-05 s⁻¹	7.38e-05 ± 2.1e-05 s⁻¹
G13U U65A	0.000112 ± 6.4e-06 s⁻¹	1260 ± 270 µM	–	–	7.82e-05 ± 1.7e-05 s⁻¹	9.77e-05 ± 1.8e-05 s⁻¹	–
A14U G32A	0.0126 ± 0.0035 s⁻¹	3720 ± 1400 µM	0.000167 ± 1.7e-05 s⁻¹	0.00046 ± 0.00011 s⁻¹	0.00376 ± 0.0007 s⁻¹	0.0102 ± 0.001 s⁻¹	0.00156 ± 0.00027 s⁻¹
G13U U30A	5.44e-05 ± 3.6e-06 s⁻¹	728 ± 260 µM	–	–	3.78e-05 ± 1.1e-05 s⁻¹	5.22e-05 ± 8.6e-06 s⁻¹	3.03e-05 ± 1.5e-05 s⁻¹
A53G A64G	0.0648 ± 0.023 s⁻¹	2430 ± 1000 µM	0.00117 ± 0.00012 s⁻¹	0.00264 ± 0.00067 s⁻¹	0.0373 ± 0.01 s⁻¹	0.0493 ± 0.012 s⁻¹	0.0149 ± 0.0022 s⁻¹
A33U G66U	1.11e-05 ± 1.2e-06 s⁻¹	–	–	< 1e-05 s⁻¹	–	–	–
A14C G66U	0.000181 ± 3.7e-05 s⁻¹	–	–	–	9.62e-05 ± 2e-05 s⁻¹	0.000191 ± 2.6e-05 s⁻¹	8.12e-05 ± 1.4e-05 s⁻¹
G29C C68U	0.000269 ± 5.9e-05 s⁻¹	959 ± 460 µM	2.38e-05 ± 1.1e-05 s⁻¹	4.12e-05 ± 5.7e-06 s⁻¹	0.000172 ± 1.2e-05 s⁻¹	0.000368 ± 3.6e-05 s⁻¹	0.000112 ± 8.7e-06 s⁻¹
G38C C61A	< 1e-05 s⁻¹	–	–	< 1e-05 s⁻¹	< 1e-05 s⁻¹	–	–
U47A A48G	7.44e-05 ± 1.1e-05 s⁻¹	–	–	–	8.16e-05 ± 2.9e-05 s⁻¹	6.69e-05 ± 1.3e-05 s⁻¹	7.58e-05 ± 2e-05 s⁻¹
A64U G66A	0.000113 ± 1.2e-05 s⁻¹	3460 ± 930 µM	< 1e-05 s⁻¹	–	4.95e-05 ± 8.6e-06 s⁻¹	8.32e-05 ± 1e-05 s⁻¹	–
G29U U47A	0.00313 ± 0.00095 s⁻¹	1350 ± 650 µM	9.83e-05 ± 1.2e-05 s⁻¹	–	0.00104 ± 0.00036 s⁻¹	0.0033 ± 0.00035 s⁻¹	0.000972 ± 0.00015 s⁻¹
